Literature values in PMC6082625.
pKd: −log10 of the molar value. Where two headings read alike, the source gives them in different places. One block for each substance: values may come before it.

Tests used:
Hsp90 (Homo sapiens) [1] = target: Hsp90 (Homo sapiens) (UniProt P07900)
[2] = target: J-domain protein (DnaJ) J domain (Escherichia coli) (UniProt P08622)
Hsp90 (Homo sapiens) [3] = target: Hsp90 (Homo sapiens) (UniProt P07900); remark: listed apart in the source

Sequence of p23 (Q15185 whole entry): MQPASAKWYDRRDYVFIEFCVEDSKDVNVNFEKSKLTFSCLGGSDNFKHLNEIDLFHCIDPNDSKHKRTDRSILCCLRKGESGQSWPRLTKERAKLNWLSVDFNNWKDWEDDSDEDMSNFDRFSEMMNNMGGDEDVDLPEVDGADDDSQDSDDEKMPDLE
Sequence of J-domain protein (DnaJ) J domain (Escherichia coli) (P08622 1-75): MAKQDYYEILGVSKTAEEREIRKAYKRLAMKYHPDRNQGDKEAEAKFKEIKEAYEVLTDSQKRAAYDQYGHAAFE
Sequence of Aha1 (O95433 whole entry): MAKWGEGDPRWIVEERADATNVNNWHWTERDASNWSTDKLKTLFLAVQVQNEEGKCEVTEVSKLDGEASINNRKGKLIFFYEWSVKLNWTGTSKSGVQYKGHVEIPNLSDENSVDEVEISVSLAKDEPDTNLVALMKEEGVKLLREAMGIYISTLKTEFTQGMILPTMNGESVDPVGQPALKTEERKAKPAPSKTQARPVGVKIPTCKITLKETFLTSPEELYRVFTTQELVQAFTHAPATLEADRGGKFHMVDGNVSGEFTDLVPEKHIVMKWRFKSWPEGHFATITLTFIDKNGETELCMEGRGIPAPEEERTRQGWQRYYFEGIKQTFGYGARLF
Sequence of Hsp70 (DnaK) (P0A6Y8 2-638): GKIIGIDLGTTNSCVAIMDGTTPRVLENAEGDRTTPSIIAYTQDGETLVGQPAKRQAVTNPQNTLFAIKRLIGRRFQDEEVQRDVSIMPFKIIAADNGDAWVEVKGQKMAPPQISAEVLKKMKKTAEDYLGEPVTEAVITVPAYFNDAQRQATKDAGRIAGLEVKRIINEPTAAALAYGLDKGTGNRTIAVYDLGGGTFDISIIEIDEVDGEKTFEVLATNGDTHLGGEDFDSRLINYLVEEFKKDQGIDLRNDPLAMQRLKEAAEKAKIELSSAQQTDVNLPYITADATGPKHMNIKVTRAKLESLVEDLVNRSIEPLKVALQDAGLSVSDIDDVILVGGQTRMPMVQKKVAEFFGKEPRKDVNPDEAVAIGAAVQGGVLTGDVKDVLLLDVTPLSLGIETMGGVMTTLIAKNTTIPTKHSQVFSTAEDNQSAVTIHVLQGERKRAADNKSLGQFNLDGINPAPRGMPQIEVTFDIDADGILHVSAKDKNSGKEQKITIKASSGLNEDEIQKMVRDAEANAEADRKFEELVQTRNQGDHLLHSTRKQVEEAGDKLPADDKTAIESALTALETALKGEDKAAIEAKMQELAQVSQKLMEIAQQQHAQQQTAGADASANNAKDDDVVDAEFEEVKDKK

pKd (Hsp90 (Homo sapiens) [1]): 6.15
Substance: Aha1 (from UniProt O95433)

pKd [2]: 5.00
Substance: Hsp70 (DnaK) (from UniProt P0A6Y8)

pKd (Hsp90 (Homo sapiens) [3]): 6.00
Substance: p23 (from UniProt Q15185)
